Measured values: patent publication US20200181248A1 (Chugai, published 2020)

Target: T1, soluble form of human GPC3 (lacking the C-terminal hydrophobic region 564-580, Flag-tagged, heparan sulfate … (human, UniProt P51654 25-563, heparan sulfate modification (smear-like band of 50 to 300 kDa)))
T1 construct: also called soluble form of GPC3; purified soluble form of GPC3; not shown: Flag tag from vector pCXND2-Flag
Experiment: sandwich ELISA: the concentration varied is that of soluble GPC3 ('GPC3 hepa'); M6B1 coated as capture, biotin-labeled M18D4 as detection

T1 sequence (P51654 25-563, form in doubt): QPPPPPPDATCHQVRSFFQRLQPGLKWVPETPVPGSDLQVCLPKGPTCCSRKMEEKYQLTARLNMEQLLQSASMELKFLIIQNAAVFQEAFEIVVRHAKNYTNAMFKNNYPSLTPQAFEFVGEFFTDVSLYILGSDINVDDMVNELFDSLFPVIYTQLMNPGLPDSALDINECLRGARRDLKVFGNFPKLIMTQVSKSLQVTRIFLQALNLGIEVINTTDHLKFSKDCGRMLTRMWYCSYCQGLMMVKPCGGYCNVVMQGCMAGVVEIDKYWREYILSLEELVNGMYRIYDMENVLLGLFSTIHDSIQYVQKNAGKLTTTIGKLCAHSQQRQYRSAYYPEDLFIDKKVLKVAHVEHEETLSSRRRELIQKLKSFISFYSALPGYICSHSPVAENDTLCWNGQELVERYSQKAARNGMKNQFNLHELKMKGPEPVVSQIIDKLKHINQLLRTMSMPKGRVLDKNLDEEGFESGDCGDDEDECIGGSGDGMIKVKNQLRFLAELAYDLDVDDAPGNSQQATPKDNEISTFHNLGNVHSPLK

B1: M6B1 (antibody, V domains shown)
VH: EVQLVESGGDLVKPGGSLKLSCAASGFTFSSYAMSWVRQTPEKRLEWVAAINSNGGTTYYPDTMKDRFTISRDNAKNTLYLQMSSLRSEDSALYYCTRHNGGYENYGWFAYWGQGTLVTVSA
VL: DIQMTQSPSSLSASLGGKVTITCKASQDINKNIIWYQHKPGKGPRLLIWYTSTLQPGIPSRFSGSGSGRDYSFSISNLEPEDIATYYCLQYDNLPRTFGGGTKLEIK
  EC50 (read off the curve): ~0.02 µg/mL
